Results reported in paper PMC9769802.

Molecular target: recombinant fusion p30-mFc protein (ASFV p30 fused to mouse IgG1 Fc) (African swine fever virus (strain not stated)) (UniProt P34204)
Experiment: SEC-MALS

recombinant fusion p30-mFc protein (ASFV p30 fused to mouse IgG1 Fc) (from UniProt P34204 1-204) (Fc fusion)
stoichiometry N: 2
